Here are results for two substances from article PMC8041823, “Structural comparison of Acinetobacter baumannii β-ketoacyl-acyl carrier protein reductases in fatty acid and aryl polyene biosynthesis” (Scientific Reports, 2021).

For test [1], the target named is Acinetobacter baumannii ApeQ (β-ketoacyl-ACP reductase of the aryl polyene biosynthesis gene cluster) (Acinetobacter baumannii (clinical CRAB strain C1)). The test is described as follows: crystal structure; apo AbApeQ, space group P3_(1)2, four molecules in the asymmetric unit.
The target is the same in test [2]. Kind of test: crystal structure; AbApeQ co-crystallised with NADPH (1:3 molar ratio), space group P2_(1), four molecules in the asymmetric unit.
The target of test [3] is Acinetobacter baumannii FabG (β-ketoacyl-ACP reductase of the fatty acid synthase gene cluster) (Acinetobacter baumannii (clinical CRAB strain C1)) (UniProt V5VHN7). Kind of test: crystal structure; apo AbFabG, 1.79 Å, four molecules in the asymmetric unit.

The term stoichiometry N denotes a count of units in the complex or per binding partner. On to “Acinetobacter baumannii ApeQ (β-ketoacyl-ACP reductase of the aryl polyene biosynthesis gene cluster) (enzyme)”, for which the stoichiometry N in test [1] and in test [2] was 4 in each case.

Regarding “Acinetobacter baumannii FabG (β-ketoacyl-ACP reductase of the fatty acid synthase gene cluster) (from UniProt V5VHN7 1-244) (enzyme)”, the stoichiometry N in test [3] turned out to be 4.
